The nanobody polyreactivity screen of Harvey et al. (2022)

Assay: yeast display, Sf9 membrane polyspecificity reagent, FACS + sequencing; frameworks hold sequencing errors
Method in brief: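 Synthetic nanobody libraries on Saccharomyces cerevisiae BJ5465 were galactose-induced for 36–48 hours, stained 1 hour at 4 °C with 10% biotinylated, detergent-solubilized Sf9 membrane reagent and enriched on streptavidin microbeads. FACS then separated cells into low and high (top ~1%) gates by anti-HA (expression) and streptavidin (reagent binding) fluorescence. Genes were colony-PCR amplified, MiSeq 2 × 250 sequenced and CDR-length filtered. A clone's polyreactivity label is that of its gate of origin.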

Sequence	polyreactivity (PSR sort gate)
QVQLVESGGGLVQAGGSLRLSCAASGSIFGSYTMGWYRPAPGKERELVAAITSGGGNTYYADSVKGRFTISRDNAKNTVYLQMNSLKPEDTAVYYCAARERYTGYGSWGQGTQVTVSS	high polyreactivity
QVQLVESGGGLVQAGGSLRLSCAASGRIFYGYAMGWYRQAPGKERELVAAITRSGGSTYYADSVKGRFTISRDTAKNTVYLQMNSLKPEDTAVYYCNAQWGYRTSFDYGYWGQGTQVTVSS	low polyreactivity
QVQLVESGGGLDQAGGSLRLSCAASGSTFSFYAMGWYRQAPGKERELVAAISRSGGCKFYADYVKGRFSISRDNEKNTVYLQMNRLKPEDTAVYYCAAKSAVVVGMDSWGQGTQVTVSS	high polyreactivity
QVQLVDSGGGLVQAGGSLRLSCAASGRTILINAMGWDRQAPGKERELVAGITRNGGTTYYADSVKGRFTISRDNAKNTVYLQMNSLKPEDTAVYYCAKRYPSWFNYWGQGTQVTVSS	high polyreactivity
QVQLVESGGGLVQAGGSLRLSCAASGRIYYWYDMGWYRQAPGKERELVAAISWSGGSTSYADSVKGRFTISRDNAKNTVYLQMNSLKPEDTAVYYCNADLTQYLGPVYEYGYWGQGTQVTVSS	low polyreactivity
QVQLVESGGGLVQAGGSLRLSSAASGRTFFRSGMGWYRQAPGKEREFVAAITRSGTTTYYADSVKGRFTISRDNAKQTVYLPMNSLQPEDTAVYYCAAQRAAPVDGKSDYWGHGTQVTVSS	low polyreactivity
QVQLVESGGGLVQAGGSLRLSCAASGSTFDSYAMGWSRQAPGKERELVARINDSGGSTYYADSVKGRFTISRDNAKNTVYLHMNSLKPEDTAVYYCNAYSWYFLPNMDYWGQGTQVTVSS	low polyreactivity
QVQLVESGGGLVQAGGSLRLSCAASGRTSSSNAMGWYRQAPGKERELVATISRTGSTYYADSVKGRFTISRDNAKNTVYLQMNSLKPEDTAVYYCNRYFSEALLHGSCYNRYYYWGQGTQVTVSS	low polyreactivity
QVQLVESRGGLVQAGGSLRLSCAASGSTCFTNDMGWYRQAPGTERELVASISPSTGSTYYADSVKGRVTISRDNAKNTVSLQMNSLKPDDTAVYYCAADEWYYSYNDGNLYDYWGQGTQVTVSS	low polyreactivity
QVQLVESGGGLVQAGGSLRLSCAASGSTFGTYAMGCYRQAPGKARELVAAISGRGTSTYYADSVKGRFTISRDNAKITVYLQMNSLKPEDTAVYYCNAVFWSRSSHFDYWGQGTQVTVSS	high polyreactivity
QVQLVESGGGLVQAGGSLRLSCAPSGFIFEGNAMGWYRQAPGKERELVATISRSGGRTNYADSVKGRFTISRDNAKNTVYLQMNSLKPEDTAVYYCAAAYLRRVAYDYWGQGTQVTVSS	high polyreactivity
QVQLVESGGGLVQAGGSLRLSCAASGSIFSTYVMGWYRQAPGKERELVAAISRRGGSTYYADSVKGRFTISRDNAKNTVYLQMNSLKPEDTAVYYCAARGQFRYSFGDYSWGQGTQVTVSS	high polyreactivity
QVQLVESGGGLVQAGGSLRLICAASGRTFYRNDMGWSRQAPGKERELVAAISGSGGTTYYADSVKGRFTISRYNAKNTVYLQMNSLNPEDTAVDYCAVDGNFFGEVRPYDYWGQGTQVTVSS	low polyreactivity
QVQLVESGGGLVQAGGSLRLSCAASGIIFAYAMGWYRQAPAKEREMVAAISGRDGSTYYADSVKGRFTISRDNAKNTVYLQMNSLKPDDTAVYYCAKRFSDLPVEMDYWGQGTQVTVSS	low polyreactivity
QVQLVESGGGLVQAGGRLRLSCAASGFIFPVYAMGWYRQAPGKERELVASITTGGSTNYADSVKGRFTISRDNAKNTVYLQMNSLKPEDTAVYYCNKDTPASLANQYNYWGQGTQVTVSS	low polyreactivity
QVQLVERGGGLVQAGGSHRLSCAASGRIFPGYAKGWYRQAPGKELELVAAISRIGGDTYYADSVKGRFTISRDNAKNTVYLQMNSLKPEDTPVYYCAARYGRHRVSWYATWRYGYWGQGTQVTVSS	low polyreactivity
QVQLVESGGGLVQEGGSLRLSCAASGSTFLTYAMGWYRQAPGKERELVAGITRSGASTYYADSVKGRFTISRDNAKNTVYLQMNSLKTEDTAVYYCAATYISHFHRYYYWGQGTQVTVSS	high polyreactivity
